# Measured values taken from publication PMC4538827.
# Values joined by “and” are separate entries in the source; they are usually repeats but may differ in a detail not shown here. Equal entries are not always repeated.
# Assays:
# [1] = biological target: T1, σNS (sigma NS) (Avian reovirus strain 1733) (UniProt W8NR44); test: fluorescence anisotropy; settings: FA: 10 mM HEPES-NaOH pH 7.5, 150 mM NaCl, 21 C, 1 nM RNA, 30 min; smFRET in same buffer at 37 C; SEC 25 mM HEPES-Na pH 7.8, 150 mM NaCl, 4 C
# T1 sequence: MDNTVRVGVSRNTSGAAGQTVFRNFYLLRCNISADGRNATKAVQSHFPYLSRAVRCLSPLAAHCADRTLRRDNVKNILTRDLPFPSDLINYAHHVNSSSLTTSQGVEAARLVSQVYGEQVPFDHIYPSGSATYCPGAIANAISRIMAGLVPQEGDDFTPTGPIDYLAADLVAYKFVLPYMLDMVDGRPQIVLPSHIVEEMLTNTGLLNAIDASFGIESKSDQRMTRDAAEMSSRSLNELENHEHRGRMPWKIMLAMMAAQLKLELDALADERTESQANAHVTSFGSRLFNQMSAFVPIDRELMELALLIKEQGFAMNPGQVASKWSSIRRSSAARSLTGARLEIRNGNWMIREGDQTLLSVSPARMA
# [2] = biological target: T1, σNS (sigma NS) (Avian reovirus strain 1733); test: ensemble FRET; settings: FA: 10 mM HEPES-NaOH pH 7.5, 150 mM NaCl, 21 C, 1 nM RNA, 30 min; smFRET in same buffer at 37 C; SEC 25 mM HEPES-Na pH 7.8, 150 mM NaCl, 4 C
# [3] = biological target: T1, σNS (sigma NS) (Avian reovirus strain 1733); test: fluorescence anisotropy; settings: FA: 10 mM HEPES-NaOH pH 7.5, 150 mM NaCl, 21 C, 1 nM RNA, 30 min; smFRET in same buffer at 37 C; SEC 25 mM HEPES-Na pH 7.8, 150 mM NaCl, 4 C; remark: listed apart in the source
# [4] = biological target: T1, σNS (sigma NS) (Avian reovirus strain 1733); test: FCS; settings: FA: 10 mM HEPES-NaOH pH 7.5, 150 mM NaCl, 21 C, 1 nM RNA, 30 min; smFRET in same buffer at 37 C; SEC 25 mM HEPES-Na pH 7.8, 150 mM NaCl, 4 C
# [5] = biological target: avian reovirus σNS (ARV strain 1733), full-length recombinant (avian reovirus strain 1733); test: native MS
# [6] = biological target: avian reovirus σNS (ARV strain 1733), full-length recombinant (avian reovirus strain 1733); test: native MS; remark: listed apart in the source
# [7] = biological target: avian reovirus σNS (ARV strain 1733), full-length recombinant (avian reovirus strain 1733); test: AUC
# [8] = biological target: avian reovirus σNS (ARV strain 1733), full-length recombinant (avian reovirus strain 1733); test: SAXS
Substance,Kd [1],Kd [3],Kd [4],further results
20-nt ssDNA,24.5 nM,,,
ATAGGTATAACAGTTAACGTATGCTATACGCTAATAGCATACGTTT [46-nt stem-loop],,333 nM,,Kd [2]: 1100 nM
GACCUAUUCUCUUUUUCUCU [20-nt RNA],35 nM,26.5 nM,39.5 nM,
GGGAGACCUAUUCUCUUUUUCUCUCCUUUUCCCCCCUGUUGCUUUAUUUUCCUUCUUUGCCUUUUUCUCUCUUUUUUUUUCUUUUUUCCCUUUCUGCUUUCCUCCCCUAUUCUCCCCUCUU [120-nt RNA],,25 nM,,
MS2 RNA (3569 nt),,,250 nM,
"avian reovirus σNS (ARV strain 1733), full-length recombinant (natural protein)",,,,stoichiometry N [5]: 8; stoichiometry N [6]: 6 and 2 and 4; stoichiometry N [7]: 6; stoichiometry N [8]: 6
